The text below walks through data of PMC5003812 (Cell Reports, 2016).

The assay deals with recombinant human FOXO3a (human, UniProt O43524 1-673). Nature of the assay: pull-down.
Sequence of recombinant human FOXO3a (O43524 whole entry): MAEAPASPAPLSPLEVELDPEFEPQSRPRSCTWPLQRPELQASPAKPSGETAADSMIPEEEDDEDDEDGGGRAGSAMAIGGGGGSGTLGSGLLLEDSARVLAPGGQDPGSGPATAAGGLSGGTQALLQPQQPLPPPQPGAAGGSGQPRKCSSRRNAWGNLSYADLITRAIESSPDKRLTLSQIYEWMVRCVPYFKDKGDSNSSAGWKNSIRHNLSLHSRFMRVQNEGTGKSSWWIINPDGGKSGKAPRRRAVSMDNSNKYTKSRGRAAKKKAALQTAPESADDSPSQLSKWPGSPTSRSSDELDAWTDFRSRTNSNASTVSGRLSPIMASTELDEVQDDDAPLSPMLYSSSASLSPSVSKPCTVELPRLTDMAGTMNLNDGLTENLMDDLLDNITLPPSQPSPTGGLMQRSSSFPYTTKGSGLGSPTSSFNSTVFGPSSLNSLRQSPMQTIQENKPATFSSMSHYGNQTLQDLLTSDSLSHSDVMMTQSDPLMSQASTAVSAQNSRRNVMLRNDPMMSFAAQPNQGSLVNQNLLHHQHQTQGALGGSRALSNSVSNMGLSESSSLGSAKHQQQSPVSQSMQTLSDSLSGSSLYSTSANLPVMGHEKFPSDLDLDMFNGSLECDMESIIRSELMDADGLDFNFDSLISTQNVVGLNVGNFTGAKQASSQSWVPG

B1: GST-ATM fragment spanning 2,842–3,056 aa (domain or fragment)
chain: PAIWFEKRLAYTRSVATSSIVGYILGLGDRHVQNILINEQSAELVHIDLGVAFEQGKILPTPETVPFRLTRDIVDGMGITGVEGVFRRCCEKTMEVMRNSQETLLTIVEVLLYDPLFDWTMNPLKALYLQQRPEDETELHPTLNADDQECKRNLSDIDQSFNKVAERVLMRLQEKLKGVEEGTVLSVGGQVNLLIQQAIDPKNLSRLFPGWKAWV
As to B1, the binding result is listed as “binds”.
